For experiment [1], the target named is human CD16A (FcγRIIIA) on the cell surface (human) (UniProt P08637).
Experiment [2] concerns the target CD16B-Fc^NA2 (human). Nature of the experiment: SPR (BIAcore 2000), antigen immobilized, koff/kon.
The target in experiment [3] is CD16B-Fc^NA1 (human). The experiment can be described thus: SPR (BIAcore 2000), antigen immobilized, koff/kon. (SPR reads the build-up and loss of mass on a sensor chip optically.)
In experiment [4] the target is human CD16A-Fc^48R/158V fusion protein (human). The experiment can be described thus: SPR (BIAcore 2000), antigen immobilized, koff/kon.
For experiment [5], the target named is human CD16A-Fc^48R/158F fusion protein (human). Nature of the experiment: SPR (BIAcore 2000), antigen immobilized, koff/kon.
Experiment [6] addresses CD16B-Fc^SH (human). Nature of the experiment: SPR (BIAcore 2000), antigen immobilized, koff/kon.
Experiment [7] concerns the target human CD16A-Fc^48R/158V fusion protein (human). Nature of the experiment: SPR (BIAcore 2000), CD16A-Fc immobilized, koff/kon.
Experiment [8] deals with CD16B-Fc^NA2 (human). Nature of the experiment: SPR (BIAcore 2000), antigen immobilized.
Experiment [9] addresses CD16B-Fc^NA1 (human). Nature of the experiment: SPR (BIAcore 2000), antigen immobilized.
The target of experiment [10] is human CD16A-Fc^48R/158V fusion protein (human). The experiment can be described thus: SPR (BIAcore 2000), antigen immobilized.
In experiment [11] the target is human CD16A-Fc^48R/158F fusion protein (human). Nature of the experiment: SPR (BIAcore 2000), antigen immobilized.
Experiment [12] deals with CD16B-Fc^SH (human). The experiment can be described thus: SPR (BIAcore 2000), antigen immobilized.
For experiment [13], the target named is human CD16A-Fc^48R/158V fusion protein (human). The experiment can be described thus: SPR (BIAcore 2000), CD16A-Fc immobilized, 1/1 Langmuir model.

Take anti-CD16 murine monoclonal antibody A9: in experiment [1], the redirected lysis of FcR-positive P815 cells by freshly isolated NK cells (calcein release) was 65%. The Kd in the experiment with CD16B-Fc^NA2 (human) [2] stood at 9.63 nM; with CD16B-Fc^NA1 (human) [3], 8.91 nM; in experiment [4], 5.17 nM; in experiment [5], 3.82 nM; with CD16B-Fc^SH (human) [6] it was 11.4 nM; in experiment [7], 1.75 nM. The koff with CD16B-Fc^NA2 (human) [8] stood at 0.000478 s⁻¹; in the experiment with CD16B-Fc^NA1 (human) [9], 0.000487 s⁻¹; in [10], 0.000406 s⁻¹; in experiment [11] it was 0.00038 s⁻¹; with CD16B-Fc^SH (human) [12], 0.000528 s⁻¹; in experiment [13] it was 0.000177 s⁻¹. In addition, the kon came out at 75700 M⁻¹ s⁻¹ in the experiment with CD16B-Fc^NA2 (human) [8]; 77200 M⁻¹ s⁻¹ with CD16B-Fc^NA1 (human) [9]; 78600 M⁻¹ s⁻¹ in [10]; 99400 M⁻¹ s⁻¹ in experiment [11]; 77900 M⁻¹ s⁻¹ with CD16B-Fc^SH (human) [12]; 101000 M⁻¹ s⁻¹ in [13].

Broadly, the Kd is the free concentration of one partner at which half of the binding sites on the other are occupied at equilibrium, for simple one-to-one binding. As a reminder, the koff is the first-order rate constant of dissociation. As usually defined, the kon is the second-order rate constant of association. A lower kon goes with slow association.

The record behind these values is patent US9701750B2.
